Experimental data: the supplement of paper PMC7877785
± gives the uncertainty stated by the source.

Experiment: self-splicing fitness, log relative to wild type (ln ratio); higher = more splicing; Tetrahymena group I intron in knt gene, E. coli kanamycin selection, DiMSum; sequences stand for … in CUCUCU…GGAGGGAAAAGUUAUCAGGCAUGCACCUGGUAGCUAGUCUUUAAACCAAUAGAUUGCAUCGGUUUAAAAGGCAAGACCGUCAAAUUGCGGGAAAGGGGUCAACAGCCGUUCAGUACCAAGUCUCAGGGGAAACUUUGAGAUGGCCUUGCAAAGGGUAUGGUAAUAAGCUGACGGACAUGGUCCUAACCACGCAGCCAAGUCCUAAGUCAACAGAUCUUCUGUUGAUAUGGAUGCAGUUCACAGACUAAAUGUCGGUCGGGGAAGAUGUAUUCUUCUCAUAAGAUAUAGUCGGACCUCUCCUUAAUGGGAGCUAGCGGAUGAAGUGAUGCAACACUGGAGCCGCUGGGAACUAAUUUGUAUGCGAAAGUAUAUUGAUUAGUUUUGGAGUACUCGUGGUCG
Outline: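 A randomised library covering all eight P1ex-region intron nucleotides was built with the intron in the knt kanamycin-resistance gene on pET-22b(+) and held in E. coli BL21(DE3). Cells were grown overnight at 37°C or 30°C on LB agar, with or without 25 μg/mL kanamycin, plus 100 μg/mL carbenicillin, 50 μM IPTG and 0.2% rhamnose, and pooled colonies were amplicon-sequenced on an Illumina HiSeq 2500. DiMSum fitness is the error-weighted combination of wild-type-normalised replicate fold changes, kanamycin versus none.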

Row | Sequence | self-splicing fitness (ln) (30 °C) | self-splicing fitness (ln) (37 °C)
1 | UUCAAGCAAUAUUACGGCGC | -1.42 ± 0.14 | -1.47 ± 0.2
2 | AAAAAGCAAUAUUACGGCAU | 0.0355 ± 0.061 | 0.55 ± 0.081
3 | CCGGAGCAAUAUUACGCGUA | -3.18 ± 0.3 | -1.59 ± 0.2
4 | UAAAAGCAAUAUUACGGAGA | -2.31 ± 0.27 | -1.83 ± 0.27
5 | CCUUAGCAAUAUUACGAUCU | -4.14 ± 0.39 | -2.88 ± 0.2
6 | UCUUAGCAAUAUUACGUGCA | -1.95 ± 0.12 | -1.07 ± 0.095
7 | GCACAGCAAUAUUACGGGGC | -3.43 ± 0.16 | -2.62 ± 0.18
8 | ACCAAGCAAUAUUACGCAAC | -3.4 ± 0.38 | -1.01 ± 0.17
9 | UGGCAGCAAUAUUACGCGUA | -0.0648 ± 0.084 | -0.33 ± 0.087
10 | CCAUAGCAAUAUUACGCGCA | -2.65 ± 0.27 | -2 ± 0.34
11 | UAGCAGCAAUAUUACGUCCC | -3.06 ± 0.41 | -1.7 ± 0.4
12 | ACUCAGCAAUAUUACGCAAG | -1.89 ± 0.11 | -0.159 ± 0.087
13 | UACAAGCAAUAUUACGGAAA | -2.07 ± 0.24 | -1.99 ± 0.27
14 | AGACAGCAAUAUUACGGGCA | -1.18 ± 0.075 | -0.503 ± 0.079
15 | CAGGAGCAAUAUUACGCAUA |  | -1.73 ± 0.33
16 | CUGGAGCAAUAUUACGACGA | -1.9 ± 0.29 | -1.7 ± 0.33
17 | GAAUAGCAAUAUUACGACUU | 0.269 ± 0.073 | 0.548 ± 0.092
18 | CGUUAGCAAUAUUACGGGAU |  | -2.25 ± 0.26
19 | CCCCAGCAAUAUUACGCUAA | -3.55 ± 0.18 | -3.2 ± 0.21
20 | GGUCAGCAAUAUUACGCAGU | -1.33 ± 0.11 | -0.639 ± 0.13
21 | AAUGAGCAAUAUUACGACCA | -2.14 ± 0.24 | -2.22 ± 0.37
22 | AAGGAGCAAUAUUACGGCCC | -2.25 ± 0.26 | -1.37 ± 0.34
23 | GGUAAGCAAUAUUACGGUGG | -2.82 ± 0.12 | -3.18 ± 0.24
24 | UGGGAGCAAUAUUACGUCAC | -1.96 ± 0.36 | 
25 | GUCUAGCAAUAUUACGCGGA | -2.61 ± 0.33 | -2.07 ± 0.27
26 | ACUAAGCAAUAUUACGAAAA | -2.26 ± 0.33 | -1.72 ± 0.36
27 | CUCCAGCAAUAUUACGAUGU | -3.28 ± 0.17 | -2.9 ± 0.21

Row | Sequence | self-splicing fitness (ln) (30 °C) | self-splicing fitness (ln) (37 °C)
28 | UACGAGCAAUAUUACGCCCC | -2.16 ± 0.44 | 
29 | AGGCAGCAAUAUUACGUGAU | -2.2 ± 0.14 | -0.983 ± 0.13
30 | CAACAGCAAUAUUACGCCGU | -4.14 ± 0.29 | -2.82 ± 0.38
31 | ACAAAGCAAUAUUACGAGGC | -2.57 ± 0.16 | -1.59 ± 0.34
32 | UAUAAGCAAUAUUACGCACA | -0.168 ± 0.085 | -0.211 ± 0.11
33 | CAUCAGCAAUAUUACGUGGA | -3.6 ± 0.19 | -2.05 ± 0.12
34 | ACCAAGCAAUAUUACGGGAA | -2.85 ± 0.13 | -2.19 ± 0.1
35 | UAUCAGCAAUAUUACGCGAA | -0.515 ± 0.12 | -0.291 ± 0.15
36 | CAUCAGCAAUAUUACGAGCG | -0.443 ± 0.059 | 0.466 ± 0.072
37 | CUCCAGCAAUAUUACGGGCA |  | -2.52 ± 0.27
38 | AAAUAGCAAUAUUACGCAGC | -3.27 ± 0.33 | -0.974 ± 0.25
39 | GGUUAGCAAUAUUACGCAUU | -0.941 ± 0.075 | -0.185 ± 0.086
40 | UGCGAGCAAUAUUACGGCCG | -1 ± 0.38 | 
41 | GGUUAGCAAUAUUACGGAAC | -1.48 ± 0.3 | -0.799 ± 0.46
42 | CCUUAGCAAUAUUACGGUUA | -3.48 ± 0.24 | -2.24 ± 0.16
43 | GUUUAGCAAUAUUACGUUAU | -2.88 ± 0.23 | -0.357 ± 0.16
44 | UGUGAGCAAUAUUACGCGCU | -2.53 ± 0.27 | -3.1 ± 0.37
45 | CGACAGCAAUAUUACGUCUA | -0.367 ± 0.052 | 0.0477 ± 0.061
46 | AAGCAGCAAUAUUACGGGCU | -1.64 ± 0.14 | -1.93 ± 0.21
47 | ACAAAGCAAUAUUACGCGCA | -0.72 ± 0.067 | -0.569 ± 0.078
48 | UGUCAGCAAUAUUACGUUUU | -3.83 ± 0.2 | -2.23 ± 0.14
49 | AAUCAGCAAUAUUACGCUUA | -0.484 ± 0.072 | 0.347 ± 0.098
50 | UACAAGCAAUAUUACGUCCG | -0.564 ± 0.068 | -0.0254 ± 0.091
51 | AAGCAGCAAUAUUACGUGAG | -1.07 ± 0.045 | -0.437 ± 0.066
52 | UAAAAGCAAUAUUACGGCAU | -0.376 ± 0.091 | -0.235 ± 0.12
53 | ACACAGCAAUAUUACGGGCA | -1.48 ± 0.078 | -0.0778 ± 0.091
54 | UAUCAGCAAUAUUACGCUAG | -0.545 ± 0.1 | -0.149 ± 0.12

Row | Sequence | self-splicing fitness (ln) (30 °C) | self-splicing fitness (ln) (37 °C)
55 | UCUUAGCAAUAUUACGGGUU | -2.2 ± 0.15 | -1.61 ± 0.18
56 | AUUUAGCAAUAUUACGAUGU | -1.08 ± 0.096 | 0.369 ± 0.11
57 | UGUUAGCAAUAUUACGCCUG | 0.435 ± 0.13 | 0.171 ± 0.17
58 | UCCCAGCAAUAUUACGGUAU | -1.24 ± 0.059 | -0.809 ± 0.08
59 | GGCAAGCAAUAUUACGUCGU | -0.68 ± 0.097 | 0.0841 ± 0.11
60 | AUAAAGCAAUAUUACGCGGG | -2.55 ± 0.13 | -1.4 ± 0.16
61 | UACUAGCAAUAUUACGAUUC | -2.3 ± 0.23 | -1.76 ± 0.43
62 | UAAGAGCAAUAUUACGGGUG | -3.49 ± 0.18 | -1.06 ± 0.13
63 | GCCUAGCAAUAUUACGGCGG | -3.45 ± 0.24 | -2.44 ± 0.35
64 | GACAAGCAAUAUUACGCCCA | -0.451 ± 0.086 | -0.609 ± 0.13
65 | GGCGAGCAAUAUUACGGACG | -0.223 ± 0.1 | -0.489 ± 0.21
66 | AGCUAGCAAUAUUACGGCCC | -0.559 ± 0.2 | 0.0329 ± 0.35
67 | UUAGAGCAAUAUUACGUAGC | -2.12 ± 0.24 | 
68 | CUUUAGCAAUAUUACGUCUA |  | -2.26 ± 0.29
69 | UCCCAGCAAUAUUACGAAUC | -2.49 ± 0.26 | -1.93 ± 0.3
70 | AUGUAGCAAUAUUACGUCUA | -1.25 ± 0.14 | -0.893 ± 0.15
71 | UAAGAGCAAUAUUACGACUG | -2 ± 0.14 | -0.767 ± 0.15
72 | ACCUAGCAAUAUUACGGCUC | -0.922 ± 0.1 | -0.468 ± 0.14
73 | AUUAAGCAAUAUUACGUGCA | -1.03 ± 0.089 | -0.282 ± 0.11
74 | GCGCAGCAAUAUUACGCGCC | -3.43 ± 0.26 | -2.41 ± 0.39
75 | GCCCAGCAAUAUUACGCGUA | -0.753 ± 0.061 | -0.155 ± 0.064
76 | GUGCAGCAAUAUUACGAUAG | -2.3 ± 0.22 | -2.21 ± 0.27
77 | AUGUAGCAAUAUUACGCAGC | -2.64 ± 0.37 | -0.433 ± 0.17
78 | AGUCAGCAAUAUUACGGCAU | 0.126 ± 0.066 | -0.106 ± 0.074
79 | AAAGAGCAAUAUUACGCAGC |  | -2.77 ± 0.41
